Article PMC5071332

Experiments:
Assay in all cases: immunostaining of cells or tissue; cell-surface binding assay: HEK293T cells expressing WT or mutant HA-tagged Slitrks incubated with 10 μg/ml control IgC or Ig-PTPδ; immunofluorescence imaging of Ig-fusion proteins and HA; percentage of cells exhibiting binding
[1] = biological target: HA-tagged Slitrk2[S549F] (human) (UniProt Q9H156)
[2] = biological target: HA-tagged Slitrk4[I578V] (human) (UniProt Q8IW52)
[3] = biological target: HA-tagged Slitrk2[S601P] (human) (UniProt Q9H156)
[4] = biological target: HA-tagged full-length Slitrk4 wild type (human) (UniProt Q8IW52)
[5] = biological target: HA-tagged Slitrk2[R32L] (human) (UniProt Q9H156)
[6] = biological target: HA-tagged Slitrk1[R584K] (human) (UniProt Q96PX8)
[7] = biological target: HA-tagged Slitrk2[V89M] (human) (UniProt Q9H156)
[8] = biological target: HA-tagged full-length Slitrk1 wild type (human) (UniProt Q96PX8)
[9] = biological target: HA-tagged Slitrk1[S593G] (human) (UniProt Q96PX8)
[10] = biological target: HA-tagged Slitrk2[L626F] (human) (UniProt Q9H156)
[11] = biological target: HA-tagged full-length Slitrk2 wild type (human) (UniProt Q9H156)
[12] = biological target: HA-tagged Slitrk1[N400I] (human) (UniProt Q96PX8)
[13] = biological target: HA-tagged Slitrk4[V206I] (human) (UniProt Q8IW52)
[14] = biological target: HA-tagged Slitrk1[T418S] (human) (UniProt Q96PX8)

percentage of cells exhibiting the binding of Ig-PTPδ [1]: 68.8%
percentage of cells exhibiting the binding of Ig-PTPδ [2]: 22.2%
percentage of cells exhibiting the binding of Ig-PTPδ [3]: 80%
percentage of cells exhibiting the binding of Ig-PTPδ [4]: 81%
percentage of cells exhibiting the binding of Ig-PTPδ [5]: 82%
percentage of cells exhibiting the binding of Ig-PTPδ [6]: 62%
percentage of cells exhibiting the binding of Ig-PTPδ [7]: 81%
percentage of cells exhibiting the binding of Ig-PTPδ [8]: 66.7%
percentage of cells exhibiting the binding of Ig-PTPδ [9]: 68.7%
percentage of cells exhibiting the binding of Ig-PTPδ [10]: 76%
percentage of cells exhibiting the binding of Ig-PTPδ [11]: 71%
percentage of cells exhibiting the binding of Ig-PTPδ [12]: 32%
percentage of cells exhibiting the binding of Ig-PTPδ [13]: 24%
percentage of cells exhibiting the binding of Ig-PTPδ [14]: 41%
Substance: recombinant Ig-fusion protein of PTPδ (IgC-PTPδ) (from UniProt P23468 21-1912) (Fc fusion)
